# Experimental data reported in patent publication US20100015126A1, “Methods of Binding of Cross-Beta Structures By Chaperones” (priority 2006, published 2010).
# Key:
# [1] = target: Heat shock 70 kDa protein 1L (human) (UniProt P34931); assay: BiP-Sepharose pull-down, RA synovial fluid sample 1B, 1 M NaCl eluate, MS; may be indirect
# [2] = target: 25 kDa protein/immunoglobulin lambda chain/rheumatoid factor G9 light chain (lambda V3)/IGLC1 protein (human) (UniProt P0CG04); assay: BiP-Sepharose pull-down, RA synovial fluid sample 3B, 1 M NaCl eluate, MS; may be indirect
# [3] = target: Apolipoprotein A-I precursor (human) (UniProt P02647); assay: as above
# Chain of Apolipoprotein A-I precursor (human) (P02647 25-267 limits assumed): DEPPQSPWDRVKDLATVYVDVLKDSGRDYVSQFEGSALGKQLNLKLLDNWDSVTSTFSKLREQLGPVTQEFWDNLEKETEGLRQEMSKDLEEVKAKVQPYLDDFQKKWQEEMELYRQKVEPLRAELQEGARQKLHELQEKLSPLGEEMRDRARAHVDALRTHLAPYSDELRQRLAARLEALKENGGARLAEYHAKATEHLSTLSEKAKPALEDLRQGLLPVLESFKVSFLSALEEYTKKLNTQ
# [4] = target: Clusterin precursor (human) (UniProt P10909); assay: as above
# Chain of Clusterin precursor (human) (P10909 23-449 limits assumed, form in doubt): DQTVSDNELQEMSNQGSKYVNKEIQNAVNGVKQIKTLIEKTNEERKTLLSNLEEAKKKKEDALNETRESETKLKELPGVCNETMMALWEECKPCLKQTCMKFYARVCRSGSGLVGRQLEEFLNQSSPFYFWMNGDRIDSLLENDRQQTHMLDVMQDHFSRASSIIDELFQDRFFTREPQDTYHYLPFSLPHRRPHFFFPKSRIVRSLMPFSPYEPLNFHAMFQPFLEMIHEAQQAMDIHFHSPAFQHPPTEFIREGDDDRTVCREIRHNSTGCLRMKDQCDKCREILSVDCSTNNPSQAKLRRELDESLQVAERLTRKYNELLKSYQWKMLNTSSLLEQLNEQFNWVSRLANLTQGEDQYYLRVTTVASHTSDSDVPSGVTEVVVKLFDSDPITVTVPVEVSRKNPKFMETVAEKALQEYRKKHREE
# [5] = target: FLJ00385 protein (Fragment), immunoglobulin heavy constant mu (human) (UniProt P01871); assay: as above
# Chain of FLJ00385 protein (Fragment), immunoglobulin heavy constant mu (human) (P01871 other isoform, or with tags, fused parts or gaps limits assumed): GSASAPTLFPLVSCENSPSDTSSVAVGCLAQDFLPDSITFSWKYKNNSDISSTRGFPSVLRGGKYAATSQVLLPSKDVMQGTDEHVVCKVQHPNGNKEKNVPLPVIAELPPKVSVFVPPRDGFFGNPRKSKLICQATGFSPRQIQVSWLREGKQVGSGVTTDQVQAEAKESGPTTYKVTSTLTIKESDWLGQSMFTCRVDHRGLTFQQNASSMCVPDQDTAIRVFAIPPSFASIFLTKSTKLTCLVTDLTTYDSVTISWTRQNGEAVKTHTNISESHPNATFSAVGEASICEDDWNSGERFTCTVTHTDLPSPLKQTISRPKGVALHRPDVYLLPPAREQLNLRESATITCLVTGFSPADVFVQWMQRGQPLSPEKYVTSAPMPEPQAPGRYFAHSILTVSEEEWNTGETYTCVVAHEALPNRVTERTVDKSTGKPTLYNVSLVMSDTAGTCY
# [6] = target: Galectin-3-binding protein precursor (human) (UniProt Q08380); assay: as above
# [7] = target: Haptoglobin precursor (human) (UniProt P00738); assay: as above
# Chain of Haptoglobin precursor (human) (P00738 19-406 limits assumed): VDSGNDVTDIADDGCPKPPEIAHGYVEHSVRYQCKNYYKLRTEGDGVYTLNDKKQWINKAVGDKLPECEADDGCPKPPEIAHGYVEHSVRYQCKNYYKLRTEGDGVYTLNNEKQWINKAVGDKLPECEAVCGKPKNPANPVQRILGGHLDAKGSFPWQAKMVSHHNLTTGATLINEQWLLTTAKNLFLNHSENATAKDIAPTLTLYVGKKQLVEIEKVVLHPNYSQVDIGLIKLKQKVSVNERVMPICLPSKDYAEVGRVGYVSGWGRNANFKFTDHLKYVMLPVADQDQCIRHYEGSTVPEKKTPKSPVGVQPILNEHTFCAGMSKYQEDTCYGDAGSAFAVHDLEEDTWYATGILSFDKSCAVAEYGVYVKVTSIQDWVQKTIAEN
# [8] = target: Heat shock 70 kDa protein 1L (human) (UniProt P34931); assay: as above
# Histone H3.2 (human) = Histone H3.2 (human) (UniProt Q71DI3); assay: as above
# [9] = target: IGHM protein, immunoglobulin heavy chain mu (heavy chain disease protein) (human) (UniProt P01871); assay: as above
# Chain of IGHM protein, immunoglobulin heavy chain mu (heavy chain disease protein) (human) (P01871 other isoform, or with tags, fused parts or gaps limits assumed): as the sequence (P01871 other isoform, or with tags, fused parts or gaps limits assumed) above
# [10] = target: IGKV1-5 protein, immunoglobulin kappa variable 1-5 (human) (UniProt P01602); assay: as above
# Chain of IGKV1-5 protein, immunoglobulin kappa variable 1-5 (human) (P01602 23-117 limits assumed): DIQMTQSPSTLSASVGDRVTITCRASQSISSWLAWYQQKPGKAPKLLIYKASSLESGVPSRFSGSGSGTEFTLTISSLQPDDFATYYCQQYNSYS
# [11] = target: Ig kappa chain V-IV region Len, immunoglobulin kappa variable 4-1 (human) (UniProt P06312); assay: as above
# [12] = target: Isoform A of Proteoglycan-4 precursor (human) (UniProt Q92954); assay: as above
# [13] = target: Isoform H17 of Myeloperoxidase precursor (human) (UniProt P05164); assay: as above
# [14] = target: Neutrophil defensin 1 precursor (human) (UniProt P59665); assay: as above
# Chain of Neutrophil defensin 1 precursor (human) (P59665 65-94 limits assumed): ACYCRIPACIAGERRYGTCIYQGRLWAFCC
# [15] = target: 25 kDa protein/immunoglobulin lambda chain/rheumatoid factor G9 light chain (lambda V3)/IGLC1 protein (human) (UniProt P0CG04); assay: BiP-Sepharose pull-down, AL amyloidosis patient I plasma (B2), MS of urea eluate; may be indirect
# [16] = target: Apolipoprotein E precursor/Apolipoprotein E/Apolipoprotein E3 (Fragment) (human) (UniProt P02649); assay: as above
# Chain of Apolipoprotein E precursor/Apolipoprotein E/Apolipoprotein E3 (Fragment) (human) (P02649 19-317 limits assumed): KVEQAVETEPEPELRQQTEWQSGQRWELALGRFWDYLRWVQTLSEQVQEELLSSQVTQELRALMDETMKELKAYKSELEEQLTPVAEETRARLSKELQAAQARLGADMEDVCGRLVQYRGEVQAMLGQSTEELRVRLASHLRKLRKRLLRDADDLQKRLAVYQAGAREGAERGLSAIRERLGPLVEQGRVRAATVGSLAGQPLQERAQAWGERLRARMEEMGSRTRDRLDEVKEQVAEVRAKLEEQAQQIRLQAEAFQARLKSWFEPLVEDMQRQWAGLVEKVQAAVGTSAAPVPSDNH
# [17] = target: Fc fragment of IgG binding protein (IgGFc-binding protein precursor) (human) (UniProt Q9Y6R7); assay: as above
# [18] = target: IGLC2 protein (immunoglobulin lambda C2)/Immunoglobulin lambda (human) (UniProt P0DOY2); assay: as above
# [19] = target: Immunoglobulin heavy constant gamma 3 (G3m marker)/Ig gamma-3 chain C region (human) (UniProt P01860); assay: as above
# Chain of Immunoglobulin heavy constant gamma 3 (G3m marker)/Ig gamma-3 chain C region (human) (P01860 other isoform, or with tags, fused parts or gaps limits assumed): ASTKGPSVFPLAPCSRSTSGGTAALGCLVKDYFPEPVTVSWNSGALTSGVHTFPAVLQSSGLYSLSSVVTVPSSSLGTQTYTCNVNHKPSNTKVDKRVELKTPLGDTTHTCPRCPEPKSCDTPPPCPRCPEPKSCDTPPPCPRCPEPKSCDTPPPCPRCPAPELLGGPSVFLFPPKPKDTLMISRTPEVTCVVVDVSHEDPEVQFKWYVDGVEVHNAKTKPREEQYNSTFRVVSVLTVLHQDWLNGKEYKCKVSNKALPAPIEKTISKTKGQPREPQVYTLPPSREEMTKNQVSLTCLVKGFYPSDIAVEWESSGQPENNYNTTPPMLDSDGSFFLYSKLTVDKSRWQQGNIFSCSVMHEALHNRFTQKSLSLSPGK
# [20] = target: Immunoglobulin lambda variable 3-25/V2-17 protein (Fragment) (human) (UniProt P01717); assay: as above
# Chain of Immunoglobulin lambda variable 3-25/V2-17 protein (Fragment) (human) (P01717 20-112 limits assumed): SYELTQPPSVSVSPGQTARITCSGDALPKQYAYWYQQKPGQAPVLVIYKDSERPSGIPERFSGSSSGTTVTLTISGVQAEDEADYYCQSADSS
# [21] = target: Isoform Long of Antigen KI-67/Antigen KI-67 (human) (UniProt P46013); assay: as above
# [22] = target: 25 kDa protein/immunoglobulin lambda chain/rheumatoid factor G9 light chain (lambda V3)/IGLC1 protein (human) (UniProt P0CG04); assay: BiP-Sepharose pull-down, AL amyloidosis patient II plasma (B3), MS of urea eluate; may be indirect
# [23] = target: Apolipoprotein E precursor/Apolipoprotein E/Apolipoprotein E3 (Fragment) (human) (UniProt P02649); assay: as above
# [24] = target: Complement factor H-related protein 3 precursor (human) (UniProt Q02985); assay: as above
# Chain of Complement factor H-related protein 3 precursor (human) (Q02985 19-330 limits assumed): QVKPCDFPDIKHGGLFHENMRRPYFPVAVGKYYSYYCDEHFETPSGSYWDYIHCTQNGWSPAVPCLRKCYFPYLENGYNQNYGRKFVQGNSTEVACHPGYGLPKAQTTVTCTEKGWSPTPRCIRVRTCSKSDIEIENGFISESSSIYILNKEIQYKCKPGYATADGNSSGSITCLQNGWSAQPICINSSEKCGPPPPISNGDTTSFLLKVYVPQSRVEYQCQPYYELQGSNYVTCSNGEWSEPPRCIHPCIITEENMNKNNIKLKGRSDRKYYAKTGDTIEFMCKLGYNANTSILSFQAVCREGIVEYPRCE
# [25] = target: Dynein heavy chain domain 3/KIAA1503 protein (Fragment) (human) (UniProt Q9P225); assay: as above
# [26] = target: Hypothetical protein/Ig kappa chain V-II region RPMI 6410 precursor (human) (UniProt P06310); assay: as above
# Chain of Hypothetical protein/Ig kappa chain V-II region RPMI 6410 precursor (human) (P06310 21-120): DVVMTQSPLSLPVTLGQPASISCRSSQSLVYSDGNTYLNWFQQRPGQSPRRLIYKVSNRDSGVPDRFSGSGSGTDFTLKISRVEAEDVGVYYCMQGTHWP
# [27] = target: IGLC1 protein (immunoglobulin lambda C1)/immunoglobulin lambda chain/immunoglobulin C1 segment protein (fragment) (human) (UniProt P0CG04); assay: as above
# Chain of IGLC1 protein (immunoglobulin lambda C1)/immunoglobulin lambda chain/immunoglobulin C1 segment protein (fragment) (human) (P0CG04 whole entry, the tested form may be a part, canonical isoform): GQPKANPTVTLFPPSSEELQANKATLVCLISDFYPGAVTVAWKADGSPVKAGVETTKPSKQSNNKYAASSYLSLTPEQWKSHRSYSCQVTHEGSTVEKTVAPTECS
# [28] = target: Isoform 1 of Plectin-1 (human) (UniProt Q15149); assay: as above
# [29] = target: V1-3 protein (Fragment)/immunoglobulin lambda variable 2-11 (human) (UniProt P01706); assay: as above
# Chain of V1-3 protein (Fragment)/immunoglobulin lambda variable 2-11 (human) (P01706 20-119 limits assumed): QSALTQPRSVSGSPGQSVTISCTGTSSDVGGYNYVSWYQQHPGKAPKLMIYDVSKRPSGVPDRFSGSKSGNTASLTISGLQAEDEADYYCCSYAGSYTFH
# Chain of recombinant human BiP with C-terminal linker, FLAG-tag and His-tag (BiP-FLAG-His) (P11021 other isoform, or with tags, fused parts or gaps): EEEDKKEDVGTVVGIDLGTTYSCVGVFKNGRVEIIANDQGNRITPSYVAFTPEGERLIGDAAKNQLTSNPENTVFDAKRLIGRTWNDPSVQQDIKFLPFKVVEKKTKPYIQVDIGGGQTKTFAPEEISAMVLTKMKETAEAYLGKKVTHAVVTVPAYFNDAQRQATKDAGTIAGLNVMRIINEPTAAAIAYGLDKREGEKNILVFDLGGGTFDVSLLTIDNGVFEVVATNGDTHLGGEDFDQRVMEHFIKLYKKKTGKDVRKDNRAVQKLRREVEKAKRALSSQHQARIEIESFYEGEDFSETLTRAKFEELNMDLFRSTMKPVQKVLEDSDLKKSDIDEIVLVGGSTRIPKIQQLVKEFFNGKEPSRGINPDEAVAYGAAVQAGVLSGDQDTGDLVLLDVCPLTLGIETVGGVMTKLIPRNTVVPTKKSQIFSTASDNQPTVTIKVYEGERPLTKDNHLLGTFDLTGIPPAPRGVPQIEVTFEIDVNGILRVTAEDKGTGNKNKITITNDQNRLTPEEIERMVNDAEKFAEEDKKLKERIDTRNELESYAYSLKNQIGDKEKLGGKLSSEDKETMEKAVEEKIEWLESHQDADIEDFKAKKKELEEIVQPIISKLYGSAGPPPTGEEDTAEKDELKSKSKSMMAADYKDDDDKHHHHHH
# Chain of Heat shock 70 kDa protein 1L (human) (P34931 whole entry): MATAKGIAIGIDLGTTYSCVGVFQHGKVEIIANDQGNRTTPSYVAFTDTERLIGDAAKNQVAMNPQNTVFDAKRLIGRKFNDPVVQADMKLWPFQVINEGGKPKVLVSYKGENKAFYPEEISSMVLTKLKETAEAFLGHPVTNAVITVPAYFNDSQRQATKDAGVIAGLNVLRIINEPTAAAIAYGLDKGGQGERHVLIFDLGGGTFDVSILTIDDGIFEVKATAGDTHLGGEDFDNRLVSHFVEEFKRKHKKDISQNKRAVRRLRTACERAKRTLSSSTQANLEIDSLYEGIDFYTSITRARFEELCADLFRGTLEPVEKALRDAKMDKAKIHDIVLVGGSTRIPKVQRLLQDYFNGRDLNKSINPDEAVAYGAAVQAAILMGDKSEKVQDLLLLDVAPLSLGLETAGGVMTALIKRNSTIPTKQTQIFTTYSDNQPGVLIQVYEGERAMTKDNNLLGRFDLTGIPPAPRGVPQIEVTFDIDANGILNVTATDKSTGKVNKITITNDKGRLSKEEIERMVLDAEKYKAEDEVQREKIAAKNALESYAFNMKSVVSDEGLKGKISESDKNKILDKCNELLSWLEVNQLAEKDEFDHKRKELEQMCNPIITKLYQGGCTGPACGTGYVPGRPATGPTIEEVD
substance,measurement,setting,value
"recombinant human BiP with C-terminal linker, FLAG-tag and His-tag (BiP-FLAG-His) (from UniProt P11021 19-654)",# of unique peptides,[1],1 peptides
same,# of unique peptides,[2],1 peptides
same,# of unique peptides,[3],8 peptides
same,# of unique peptides,[4],1 peptides
same,# of unique peptides,[5],2 peptides
same,# of unique peptides,[6],1 peptides
same,# of unique peptides,[7],3 peptides
same,# of unique peptides,[8],1 peptides
same,# of unique peptides,Histone H3.2 (human),1 peptides
same,# of unique peptides,[9],1 peptides
same,# of unique peptides,[10],5 peptides
same,# of unique peptides,[11],1 peptides
same,# of unique peptides,[12],2 peptides
same,# of unique peptides,[13],1 peptides
same,# of unique peptides,[14],1 peptides
same,# of peptides,[15],1 peptides
same,# of peptides,[16],6 peptides
same,# of peptides,[17],4 peptides
same,# of peptides,[18],1 peptides
same,# of peptides,[19],2 peptides
same,# of peptides,[20],8 peptides
same,# of peptides,[21],1 peptides
same,# of peptides,[22],1 peptides
same,# of peptides,[23],1 peptides
same,# of peptides,[24],1 peptides
same,# of peptides,[25],2 peptides
same,# of peptides,[26],1 peptides
same,# of peptides,[27],1 peptides
same,# of peptides,[28],1 peptides
same,# of peptides,[29],2 peptides
